This data set concerns the molecule itself. As to the kind of experiment: crystal structure.

The source of these data is PMC4486471 (Nature communications, 2014).

B1: auto-phosphorylated minimal dual catalytic domain fragment of murine IRE1α encompassing residues 549 to 977 (domain or fragment, mouse, UniProt Q9EQY0 549-977, looked up)
chain: SPSLEQDDEDEETRMVIVGKISFCPKDVLGHGAEGTIVYKGMFDNRDVAVKRILPECFSFADREVQLLRESDEHPNVIRYFCTEKDRQFQYIAIELCAATLQEYVEQKDFAHLGLEPITLLHQTTSGLAHLHSLNIVHRDLKPHNILLSMPNAHGRIKAMISDFGLCKKLAVGRHSFSRRSGVPGTEGWIAPEMLSEDCKDNPTYTVDIFSAGCVFYYVISEGYHPFGKSLQRQANILLGACNLDCFHSDKHEDVIARELIEKMIAMDPQQRPSAKHVLKHPFFWSLEKQLQFFQDVSDRIEKEALDGPIVRQLERGGRAVVKMDWRENITVPLQTDLRKFRTYKGGSVRDLLRAMRNKKHHYRELPVEVQETLGSIPDDFVRYFTSRFPHLLSHTYQAMELCRHERLFQTYYWHEPTEPQPPVIPYAL
modifications: auto-phosphorylated (sites not given)
With B1, the binding result is reported as “binds”.
